Our source for the response values is PMC8263776, “Calmodulin-dependent KCNE4 dimerization controls membrane targeting” (Scientific Reports, 2021).

The chains are these.
B1: KCNE4-CFP [mouse] / KCNE4-YFP [mouse] (parent)
chain 1: MLRMEPLNSTYPSAAASSSPLESHVPSNSSGNGNEYFYILVVMSFYGVFLIGIMLGYMKSKRREKKSSLLLLYKDEERLWGEAMKPLPMMSGLRSGQVPMMLNMLQESVAPALSCTLCSMEGDSVSSESSSPDVHLPIQEEGADDELEETSETPLNDSSEGSSENIHQNS
chain 2: B1 chain 1

The assay covers variants of B1. The assay is described as follows: FRET (CFP/YFP) in cells. To be noted: with KCNE4-YFP [mouse]; HEK-293 cells; n > 25 cells; parent: 12; read off a plot.
With chain 1 MLRMEPLNSTYPSAAASSSPLESHVPSNSSGNGNEYFYILVVMSFYGVFLIGIMLGYMKSKRREKKSSAAAAYKDEERLWGEAMKPLPMMSGLRSGQVPMMLNMLQESVAPALSCTLCSMEGDSVSSESSSPDVHLPIQEEGADDELEETSETPLNDSSEGSSENIHQNS [chain 1 L69A L70A L71A L72A], the response stood at 7.2%.
